Among the data in publication PMC12636033, “Chemical Engineering of Transcription Factors Uncovered Cell-Permeable μMax Modulators” are binding signal values, retold here.

The chains are these.
B1: dBr_Jan07_12609 (dsDNA)
DNA 1: TGATAAGGATCTACTTCAAGAGCACGTGTCATCTATGTCTGTGTTCCGTTGTCCGTGCTG
DNA 2: CAGCACGGACAACGGAACACAGACATAGATGACACGTGCTCTTGAAGTAGATCCTTATCA
B2: dBr_Jan07_25672 (dsDNA)
DNA 1: TCACGCACCCCGCAAGCGCAACCACGTGGTAAGGGTGTCTGTGTTCCGTTGTCCGTGCTG
DNA 2: CAGCACGGACAACGGAACACAGACACCCTTACCACGTGGTTGCGCTTGCGGGGTGCGTGA
B3: dBr_Jan07_16225 (dsDNA)
DNA 1: ACATTCCTAGCTATTACTTGGTAGCTCTCAGCACGTGTCTGTGTTCCGTTGTCCGTGCTG
DNA 2: CAGCACGGACAACGGAACACAGACACGTGCTGAGAGCTACCAAGTAATAGCTAGGAATGT
B4: dBr_Jan07_28790 (dsDNA)
DNA 1: CTATTCCGATGCCATAAAACTTTCCACTCCACGTGTGTCTGTGTTCCGTTGTCCGTGCTG
DNA 2: CAGCACGGACAACGGAACACAGACACACGTGGAGTGGAAAGTTTTATGGCATCGGAATAG
B5: dBr_Jan07_39019 (dsDNA)
DNA 1: TCCTTCCCGACGGACAGTGCAATCTGATTATCACGTGTCTGTGTTCCGTTGTCCGTGCTG
DNA 2: CAGCACGGACAACGGAACACAGACACGTGATAATCAGATTGCACTGTCCGTCGGGAAGGA
B6: dBr_Jan07_30895 (dsDNA)
DNA 1: TTGCCGTATAGTGATCCTAAGCGTCCACGTGGATGAGTCTGTGTTCCGTTGTCCGTGCTG
DNA 2: CAGCACGGACAACGGAACACAGACTCATCCACGTGGACGCTTAGGATCACTATACGGCAA
B7: dBr_Jan07_01481 (dsDNA)
DNA 1: CCGCCAGCATTTCCTGCTTTGCACGTGTAAGATACCGTCTGTGTTCCGTTGTCCGTGCTG
DNA 2: CAGCACGGACAACGGAACACAGACGGTATCTTACACGTGCAAAGCAGGAAATGCTGGCGG
B8: dBr_Jan07_03962 (dsDNA)
DNA 1: TGGCCGCCACGTGGCGCTCTGCGGTCACATGTTGGGGTCTGTGTTCCGTTGTCCGTGCTG
DNA 2: CAGCACGGACAACGGAACACAGACCCCAACATGTGACCGCAGAGCGCCACGTGGCGGCCA
B9: dBr_Jan07_19752 (dsDNA)
DNA 1: TAAGCTTCGGTTCTCGTTCGGTACAACACGTGTATGGTCTGTGTTCCGTTGTCCGTGCTG
DNA 2: CAGCACGGACAACGGAACACAGACCATACACGTGTTGTACCGAACGAGAACCGAAGCTTA
B10: dBr_Jan07_32554 (dsDNA)
DNA 1: CGACGTTGTCTGACGAATAATGCCGAGCGGACACGTGTCTGTGTTCCGTTGTCCGTGCTG
DNA 2: CAGCACGGACAACGGAACACAGACACGTGTCCGCTCGGCATTATTCGTCAGACAACGTCG
B11: dBr_Jan07_13408 (dsDNA)
DNA 1: CCGCGCGCAGGCACTTAGGGTACCTGCTGTCCACGTGTCTGTGTTCCGTTGTCCGTGCTG
DNA 2: CAGCACGGACAACGGAACACAGACACGTGGACAGCAGGTACCCTAAGTGCCTGCGCGCGG
B12: dBr_Jan07_09107 (dsDNA)
DNA 1: TCTCCTGTGACAATTACGCCCCCCCCAGGCGCCTACGTCTGTGTTCCGTTGTCCGTGCTG
DNA 2: CAGCACGGACAACGGAACACAGACGTAGGCGCCTGGGGGGGGCGTAATTGTCACAGGAGA
B13: dBr_Jan07_22161 (dsDNA)
DNA 1: GAATTTACCCGCGCTGTTGGTCACGTGTGTGGTTTTGTCTGTGTTCCGTTGTCCGTGCTG
DNA 2: CAGCACGGACAACGGAACACAGACAAAACCACACACGTGACCAACAGCGCGGGTAAATTC
B14: dBr_Jan07_16204 (dsDNA)
DNA 1: ATGAACCAATCGGTCGATTAGAGATAGAGAAAGAAGGTCTGTGTTCCGTTGTCCGTGCTG
DNA 2: CAGCACGGACAACGGAACACAGACCTTCTTTCTCTATCTCTAATCGACCGATTGGTTCAT
B15: dBr_Jan07_25737 (dsDNA)
DNA 1: TGCACGACCAGTCATCCACGTGTTTGCCCGCAAAGTGTCTGTGTTCCGTTGTCCGTGCTG
DNA 2: CAGCACGGACAACGGAACACAGACACTTTGCGGGCAAACACGTGGATGACTGGTCGTGCA
B16: dBr_Jan07_16923 (dsDNA)
DNA 1: TGGGTCATGCTCGAACAGCGTCACTAGGTAGCACGTGTCTGTGTTCCGTTGTCCGTGCTG
DNA 2: CAGCACGGACAACGGAACACAGACACGTGCTACCTAGTGACGCTGTTCGAGCATGACCCA
B17: dBr_Jan07_04478 (dsDNA)
DNA 1: AGTTGCGCCACTATGCCAAAACACCATTGAGCACGTGTCTGTGTTCCGTTGTCCGTGCTG
DNA 2: CAGCACGGACAACGGAACACAGACACGTGCTCAATGGTGTTTTGGCATAGTGGCGCAACT
B18: dBr_Jan07_07207 (dsDNA)
DNA 1: TCAGCCGCGTGGCACAATGTCCACAGGTAGGGTACAGTCTGTGTTCCGTTGTCCGTGCTG
DNA 2: CAGCACGGACAACGGAACACAGACTGTACCCTACCTGTGGACATTGTGCCACGCGGCTGA
B19: dBr_Jan07_34584 (dsDNA)
DNA 1: ATTGCCGCACCTGATGCATCGCCACGTGTTATAATCGTCTGTGTTCCGTTGTCCGTGCTG
DNA 2: CAGCACGGACAACGGAACACAGACGATTATAACACGTGGCGATGCATCAGGTGCGGCAAT
B20: dBr_Jan07_16171 (dsDNA)
DNA 1: ATCACGTGCATCTACTAGACACCCCATGCGTTAGGCGTCTGTGTTCCGTTGTCCGTGCTG
DNA 2: CAGCACGGACAACGGAACACAGACGCCTAACGCATGGGGTGTCTAGTAGATGCACGTGAT
B21: dBr_Jan07_35732 (dsDNA)
DNA 1: TAGTTGTATCTTGATCGCCGATTCCCCATGCCACGTGTCTGTGTTCCGTTGTCCGTGCTG
DNA 2: CAGCACGGACAACGGAACACAGACACGTGGCATGGGGAATCGGCGATCAAGATACAACTA
B22: dBr_Jan07_27092 (dsDNA)
DNA 1: GTTTAGAGGCTGTTTGCTGTCGCCCTACAACCACGTGTCTGTGTTCCGTTGTCCGTGCTG
DNA 2: CAGCACGGACAACGGAACACAGACACGTGGTTGTAGGGCGACAGCAAACAGCCTCTAAAC
B23: dBr_Jan07_09790 (dsDNA)
DNA 1: ATTCTAATGATTGCGTATACACGTGTCTTGAATTGGGTCTGTGTTCCGTTGTCCGTGCTG
DNA 2: CAGCACGGACAACGGAACACAGACCCAATTCAAGACACGTGTATACGCAATCATTAGAAT
B24: dBr_Jan07_01937 (dsDNA)
DNA 1: AGCTTTTTATCTCTGTGGGCGGGTAACAACCATGTGGTCTGTGTTCCGTTGTCCGTGCTG
DNA 2: CAGCACGGACAACGGAACACAGACCACATGGTTGTTACCCGCCCACAGAGATAAAAAGCT
B25: dBr_Jan07_11943 (dsDNA)
DNA 1: GGGCCGGTAAACGGACTGGTACGATGAAGCGCACGTGTCTGTGTTCCGTTGTCCGTGCTG
DNA 2: CAGCACGGACAACGGAACACAGACACGTGCGCTTCATCGTACCAGTCCGTTTACCGGCCC
B26: dBr_Jan07_36814 (dsDNA)
DNA 1: GCGCAAGCCATGACCCGGTACGATTTAGAAATGGCGGTCTGTGTTCCGTTGTCCGTGCTG
DNA 2: CAGCACGGACAACGGAACACAGACCGCCATTTCTAAATCGTACCGGGTCATGGCTTGCGC
B27: dBr_Jan07_01315 (dsDNA)
DNA 1: ATTACCTACTCAACTTACTAGGAAACACGTGCACATGTCTGTGTTCCGTTGTCCGTGCTG
DNA 2: CAGCACGGACAACGGAACACAGACATGTGCACGTGTTTCCTAGTAAGTTGAGTAGGTAAT
B28: dBr_Jan07_20877 (dsDNA)
DNA 1: TAAACCTAGAGACGCTAAGAACACTTACAGGCGAGCGTCTGTGTTCCGTTGTCCGTGCTG
DNA 2: CAGCACGGACAACGGAACACAGACGCTCGCCTGTAAGTGTTCTTAGCGTCTCTAGGTTTA
B29: dBr_Jan07_07176 (dsDNA)
DNA 1: TATGCGTTGGCCATCTTAATTCCACGTGGTGTCCTCGTCTGTGTTCCGTTGTCCGTGCTG
DNA 2: CAGCACGGACAACGGAACACAGACGAGGACACCACGTGGAATTAAGATGGCCAACGCATA
B30: dBr_Jan07_16409 (dsDNA)
DNA 1: CGTTACTGGTGCACGTGTTCTCCTCTCCACCTTCAGGTCTGTGTTCCGTTGTCCGTGCTG
DNA 2: CAGCACGGACAACGGAACACAGACCTGAAGGTGGAGAGGAGAACACGTGCACCAGTAACG
B31: dBr_Jan07_00940 (dsDNA)
DNA 1: GGATATGGCCCTCCCTACGAACACGTGGAGTTAGGCGTCTGTGTTCCGTTGTCCGTGCTG
DNA 2: CAGCACGGACAACGGAACACAGACGCCTAACTCCACGTGTTCGTAGGGAGGGCCATATCC
B32: dBr_Jan07_03225 (dsDNA)
DNA 1: TTCTATCCCTAATCTCCGCGTGGCTACCCCTTCAAGGTCTGTGTTCCGTTGTCCGTGCTG
DNA 2: CAGCACGGACAACGGAACACAGACCTTGAAGGGGTAGCCACGCGGAGATTAGGGATAGAA

Sequence of WT Max (P61244 other isoform, or with tags, fused parts or gaps M65Nle): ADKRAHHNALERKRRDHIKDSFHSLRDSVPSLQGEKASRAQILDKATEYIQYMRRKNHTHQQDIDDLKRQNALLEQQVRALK

The data set concerns the target WT Max (Homo sapiens, UniProt P61244-2 13-93, M65Nle, norleucine written as M; other non-natural residues written as X). As to the kind of experiment: PBM; 50-200 nM protein; PBS, 2% milk, BSA, salmon testes DNA, 0.02% Triton X-100. As to conditions: chain copies: 2; label: surface-attached array probe.
For B1, the binding signal is 4.35 robust z of log adjusted intensity (ours), mean of two arrays. In the case of B2 it was 6.01 robust z of log adjusted intensity (ours), mean of two arrays; in that of B3, 4.26 robust z of log adjusted intensity (ours), mean of two arrays; in that of B4, 4.91 robust z of log adjusted intensity (ours), mean of two arrays. As to B5, the binding signal is 4.91 robust z of log adjusted intensity (ours), mean of two arrays. In the case of B6 it was 4.78 robust z of log adjusted intensity (ours), mean of two arrays; in that of B7, 4.74 robust z of log adjusted intensity (ours), mean of two arrays; in that of B8, 4.57 robust z of log adjusted intensity (ours), mean of two arrays. With B9 the figure was 4.26 robust z of log adjusted intensity (ours), mean of two arrays. With B10, the binding signal is 4.1 robust z of log adjusted intensity (ours), mean of two arrays.

In the case of B11, the binding signal was 4.13 robust z of log adjusted intensity (ours), mean of two arrays. With B12 the figure was -1.31 robust z of log adjusted intensity (ours), mean of two arrays; with B13, 5.72 robust z of log adjusted intensity (ours), mean of two arrays; with B14, -1.46 robust z of log adjusted intensity (ours), mean of two arrays.

Take B15: the binding signal was 4.58 robust z of log adjusted intensity (ours), mean of two arrays. In the case of B16 it was 4.47 robust z of log adjusted intensity (ours), mean of two arrays; in that of B17, 4.55 robust z of log adjusted intensity (ours), mean of two arrays.

On to B18, for which the binding signal is 5.41 robust z of log adjusted intensity (ours), mean of two arrays. In the case of B19 it was 6.19 robust z of log adjusted intensity (ours), mean of two arrays. In the case of B20 it was 6.35 robust z of log adjusted intensity (ours), mean of two arrays; in that of B21, 4.37 robust z of log adjusted intensity (ours), mean of two arrays; in that of B22, 4.94 robust z of log adjusted intensity (ours), mean of two arrays. As for B23, the binding signal is 4.37 robust z of log adjusted intensity (ours), mean of two arrays. In the case of B24 it was 4.33 robust z of log adjusted intensity (ours), mean of two arrays; in that of B25, 4.72 robust z of log adjusted intensity (ours), mean of two arrays; in that of B26, -1.34 robust z of log adjusted intensity (ours), mean of two arrays. With B27 the figure was 5.18 robust z of log adjusted intensity (ours), mean of two arrays. In the case of B28 it was -1.02 robust z of log adjusted intensity (ours), mean of two arrays; in that of B29, 4.6 robust z of log adjusted intensity (ours), mean of two arrays. With B30, the binding signal is 4.95 robust z of log adjusted intensity (ours), mean of two arrays. Take B31: the binding signal is 4.33 robust z of log adjusted intensity (ours), mean of two arrays.

Consider B32, for which the binding signal was 4.25 robust z of log adjusted intensity (ours), mean of two arrays.
